Experiment: Example 6: safety
Set-up: species or system human
Details: in vivo
Experimental: Safety was monitored by vital sign measurements and documentation of adverse events (AE) during all visits throughout the study.
Safety data included AEs, laboratory data, vital signs, physical examinations, and ECGs. Vital signs (systolic and diastolic blood pressure, respiration rate, heart rate, and body temperature) for each treatment group were summarized at baseline (defined as the −30 min time point) and at the end of each study day.

With “SC insulin: human regular insulin injected subcutaneously (Humulin R or equivalent; Calbiochem insulin in the rat studies)” the “Adverse events / tolerability” value was “No adverse events were observed”.
